According to the DeepSol protein solubility set:

Test: soluble on expression in E. coli; label from the status in PepcDB or PDB records

Soluble on expression in E. coli, not soluble:
MGSDKIHHHHHHMPEFRKDPIIKRWVIIATERAKRPHDFARTKVEEVREGFCPFDYGNEHTTPPEIFAFRPADTEPNTPGWWVRVVPNKFPAVDPNAPLRKYGRGMYDAAMGFGYHDVVVETPDHNSHLAVMDYKNVEEVIWAYKIRYEQLMKDERIKYILIFKNHGRDAGASLSHPHSQIIALPIMPKRVQEELDGSKEYYEYKERCPFCDIIDEEKRERERIVEENDHFIALEPFAARFPFETWILPKRHMNSFHLISEDEVGSLAKILKNVLYRIYAALDNPPYNLLIHTAPTSLEGKDYYHWHIEIFPRLTKVAGFEWGTGFYINTVPPEDAARYLREVSLEQV
MGSDKIHHHHHHMPIKALRLKAMQLKATRLKAKLLQARLLQASALLGTSLNLVAMAAPYNAINESIDDGFVEAGDILVIAIPATGYLASWLYDDFEGAKQLTFSVLTTQLIVEATKSTVGRYRPNSNVAGGSYKSFPSGHSAGAFSGAAFLQSRYGSRWGIPAYLGAGVVAASRVHGRRHYADDVLGGAGIAILVNQYFVERYDNQGLAVSLFPNDEGGLQFNLSMPLDGPLNGRAGPRAEKRAQPAVHGPKRHRFAVNLGFNMTDSLGMAGAKDLLPDSQLVDDHQPFSYLLYEYLDSSKTSLQLELSPNETRLFGTLSGEFELDGKQYQDGDSLYLAFKQWSLGSQYFYRFAPQGDWHFKLGGGLYAYWVELEVDYLTGGQYAGEGSLEVMPSIEGRTRYHIGGGLSADAMARFQAWSGNQLVAAEAGLSYALGEEWVMGLKYAYSEAKWDALNMEYQTDSIVLTVENRF
MGSDKIHHHHHHMPKYLVFMDIDGTLLTDHQYVSERTRATIERFQKQDVLFYIATGRMYELAKIVRDKVNADVRLVTSNGAVFDGAQGRELTKLGGAAVELAYLIARRDNLPMMLFTPDMAYYTEQIPRFVARNAANFDADEVSIGYEEVKSFTQLATIEDQITNGVILSREDMSRLDSAREKLTNSKLLRLSSSNPNNIEMIPLNTDKGTAVKQIQREQHVDAAHTFVFGDGLNDVGMMAEADLSVAMGNALPQVKKVANYVTDMNYNDGLALFLEKYFAAHPLSTTK
MGSDKIHHHHHHMPLKTPPCVRRHTTGHETCSAQRSEHDGRRHLFPHDARALEIQERDVTHPIVSSEVPVEYINLPEPQTEGGMPLMTALHKRRSVRSFAQRPLDEALLSTLLWAAFGINRPDTGLRTAPSARNWQEIDVYVAMPDGLYALEPAAWRLRLVTGEDLRAATGLQDYVSTAPLDLVYVSRLSKLDETDKPMRQFYTALDTGYISQNVYLFCAASGLATVARGLLDRRALAKAMRLDPDQRVVLAQSVGFPA
MGSDKIHHHHHHMPLPQVTMQELPWKMKKSLSRSTLRSPNGFSEIGLKLEMVSQDALRRTIFPLGGLTKEFVKKIAAENRLHHVLQKKESMGMCFIGKRNFEHFLLQYLQPRPGHFISIEDNKVLGTHKGWFLYTLGQRANIGGLREPWYVVEKDSVKGDVFVAPRTDHPALYRDLLRTSRVHWIAEEPPAALVRDKMMECHFRFRHQMALVCCVLQGGRVPGQREDPAAGAVCLHAPEGPAQSWDGH
MGSDKIHHHHHHMPNSYTHYHDENVTDPHLRATGAISVLPLGAHEQHGPHLPFETDTLIAAGIVSRLAAVLPAHLPVSFLPVEPVGYSIEHMDVPGTKTLCYDEAIERWLGIAEAEYEKGVRKFVMLNAHGGNSPLMTIVATEARARFGMLAVATSWTRFGVPADIVKPQDKAVDIHGGDIETSVMLALHPERVVMEKAANFPSRQSDFSQRFSHLRAYGPHAFGWLMSDLNPDGVAGNAAAASAGKGERLISHAVNGLLELLEDVHAFDITLFHNKI
MGSDKIHHHHHHMPQDVMTANHVSPSNDAAAPSALDLARNQRLSLMDLLSVSEALNAAGQQAAAAELYKTWVAFNDNNPTIHLAYFNYAVMLNQLGDRAGAVQAFRACLKANPEFAPGHINLGRALEDAGLIGHAVEQWSHYAEVTKNVDAETIGHRHMTLQNMGRVLEGAGKLEEAETALLQAFELRPELPEAGQHWASLRQRQCKWPVLAPSNHISPRKMLDAMSSLTLSCYADDPMFQLAKAYRLSKTLIGARPDLSRFPRRSPKQKSGTGQRLRVGYLSSDLRDHAVGFALCEVLELHDKDSLEVFAYYCGNVRGTDSTQERIKAAVHCWRDIHGVDDATAASQIIADEIDILIDVNGYTKDARAKIFAYRPAPVIVSFCGYPGSMGSPFHQYLISDGYMIPPENEIYYSEKVLRIACDQPLDRKRPVAARPSRADVGLPEDAFVYASFNGMQKITENCFARWMTILSETPGSLLWLLTGDDDVNQRLRDLAEKSGVASERLVFAPKAQNPQHIARIGLADLFLDTFPYGAHSTASDAITSGLPVLTMYGKTFAARFCGSIVTAAGVPEMICSSPEDYVARAIGFERDRQSLLEVRESIARQRETSVLRDIPALARRLEELFWQMQGECERGETPVPDLSNLDIYYEAGAEALLENIEFEDEQSYRERYLKKLRQWHDYAPIPYDRRLWQNPDN
MGSDKIHHHHHHMPQTAFIWDLDGTLIDSYEAIMEALAVTYRTFGFDFQAEPIRRYIIKESVGKLLDILAKQHGLSSEELKTFFIQEQVKRDDKIKLMPFAKEALQWAKDRGIKQFMYTHKGASTGAVLAELGIVSYFTEILTSVSGFERKPHPQGIFYLLEKYHLDRDRTYYIGDRRLDVEVAENAGIKSINLAQPQSAANQKIDNLQVLTQLKDF
MGSDKIHHHHHHMPRQLPPLYALRAFEAAARLSSFTRAGEELSITQSAISRHIRTLEEHFACRLFVRSGRSLQLTEAGRVLLPGVREGFAAFERACETLCGEDDILRMKAPSTLTMRWLLACLSRFRHLQPGNEVQLTSAWMDVDHVDFNQEPFDCAVLLSDGVFPPEWEVRKLFPELLIPVGAPDLLDEEPWDVCRLASVELLHPTVDKRDWREWLERMGLGDQVSLKGGQVFDTLELGMIAAARGYGISMGDLLMVAEDVAQKRLSLPWPTAVPSGMDYYLVWPRTRRGGERLRRLSAFLEGEVAAMDLPDVEILPRL
MGSDKIHHHHHHMPRTILKDEHWTRLKPILLELNIYDKGNLRNTVEGVLYRMRVGCPWRDLPEHFGKPNTVYKAYQRWFRSNKLIALFALLIKDSDCEWVFIDGTHIKAHQHSSIGHENMQGISKSVAGRATKIHLAVDAHGNPITFILSDGTTHDVKVAPDLIDKDLSDTDILCADKGYDSDALRTHIKQAGCFNNIPRRRNTKSTNNHMDWHLYKTRHLVENAFAKLKHYRAVATRFDKLKQSYENTVALACAYLWLKL
MGSDKIHHHHHHMPTLNQPQARFLALPHKFRAFVAGFGSGKTWVGGAGLCRHAWEFPRVNSGYFAPTYGQIRDIFYPTIEEVAHDWGLAAKINESNKEVHLFAGRKYRGTVICRSMEKPGDIVGFKIGKGLIDELDVMKADKAALAWRKIIARLRHTAPGLLNGVDVTTTPEGFKFVYQQFVKQVRERPELAALYGLVQASTYENGKNLPEDYIPSLRASYPPQLIAAYLRGQFTNLTSGSVYANFDRRLHHTDAAEEPHEELHIGMDFNVLNMTATVNVIRAGLPLTVGELTKVRDTPEMARMLKERFKDKGHGVTIYPDASGGNTSSKNASESDLSILRKAGFTVRVNSRNPSVKDRINAVNGMLLNDEGARRWLVNTDRCPTLTEALEQQVYDKNGEPDKSTGHDHPNDAQGYFLVHRYPITPTGMSRIKLTGT
MGSDKIHHHHHHMPTTMTTNIKNNDFKDVVFNRQSVRQFDPTVKIDREELQTIIDETISAPSACNLQSWHFVVADSADGKAKAKSVLMPFNYPQIDSCSAMIFVLGDTQSHLVYRDVWNKACEEGRITPEKRDQIFKTFLPMYENASPEFLQADAMIDSSMAAMQLLLIARAHGYDANPIAGYAADKVATTFGLDAKRYVPVMAIALGKAASEPITTTRYAGTQVTEFI
MGSDKIHHHHHHMPTVKLTKNITIMTGSPNTLIYDNRVVIDLGGKNSSVDINAEVQLATHGHADHIAGLLKKDAKIRYLPKEDYWSLTLMGRRAMIYGCSSKDSDIFTFDYVKENIESIDIEVRTSEIEVIKLPGHTPGHSGYIVDNVLYAGDAFFGEKVLEGFSVPFYTDFWTALESLNKVKELAKSVNNIVISHGPVYTNKNKMVSILESNIIYAQNLIGKILDMLSNNELTVEEIVVKLKQDLTPSNVLLNSVVVRSILFGLENIEYNVSQKGLVFRRRVH
MGSDKIHHHHHHMPTYDAVIVGSGINSLVCAAVLARSGKRVCVLERNSTLGGCIRTEALHAPGYLHDTLSTAHPLFVTSPGYAELKDDLHQAGLSYANNDTPTGVLLPGNRSLILATSRERNVSAFNALASGDGDAYLAAMQEVEQNAGLVFSLLGNELWSADVAKTVAGRLWKQGVHDTVAFFSPALMSCRSWLETRIRSDLVRALLAPWVLHTGLGPESAMSALMGKVVAFSLEAVGLPIVQGGNARTVEAFRQIVESHGGAFHVNADVEDVLVENGSARGVRTRDDRVFMGKEIICNVTPGQLYGKLLAPAHVPPALRQQAAEYRYGKGNMQIHLSLSAPPDWPHAHLRNVIYLHLTSGLDGVSRAVSEAERGLLPAEGTICVAQPCAVDPSRSPAGGWVLWIQVPECPRTIKGDALGEIDAPADGRWTPEIRERYADRIIDRIARQVPNLKASIVGRTVLSPADLEAMNINLVGGDPYSGECSIDQFMVWRPLRGARNHATPVKHLHHIGASTHPGPGLGGTSGYHVANALARKRAKSNRT
MGSDKIHHHHHHMPVSQPVSSQPPTANCYDLAVIGGGINGVGIAADAAGRGLKVFLCEKDDLAQHTSSASSKLIHGGLRYLEHYEFRLVREALAEREVLLAKAPHIVKPMRFVLPHRPHLRPAWMIRAGLFLYDHLGKRKRLGASRSLRFGPGYPLKPAITRGFEYADCAVDDARLVVLNAMAARELGAHIRTRTRCLRAERVEGLWQVELQHADGSLQTIHARALVNAAGPWVASFIKDDLKLDAPYGIRLIQGSHIIVPRLYEGEHAYILQNEDQRIVFCIPYLDRFTLIGTTDREYSGDPAAVAITEQETHYLLKVVNEHFNHQLSQADILHTYSGVRPLCNDESDNPSAVTRDYTLALSAEVGQAPLLSVFGGKLTTYRKLAESAMAELKPFFTQMRAPWTASAPLPGAEGMTTVQALIDAVLARCGWLPVDLAKRWVLTYGSRVWRLLDGVHGPEDLGQAIGAGLFTREVDYLLEEEWAEQTADIIWRRTKLGLSLTAQEQMALEAYLQQARKVRANSRAA
MGSDKIHHHHHHMPYNATVLRIMIASPSDVAKERNIIRNIIYEWNTINSIDRKIVLDPVGWETHAHPDMSGRAQSIINKQILKDCDLLVAVFWTRLGTPTGKFISGTVEEIEEHLKSGKQAMIYFSRAPVYLESVDQDQYKALCDFRSLCQQKGLIETYESLEEFQHKFSRQISQKIIQNYSSLESTNNTLEVSFAPELPRLSDLGKDLLIEVASDSNGELICLPVMGGLMIETNNKQLADMGNARSEASWKSAISELIKYELMESLGGKGEVYRLTEKGYQVADHLGAP
MGSDKIHHHHHHMQAAWLLGALVVPQLLSFGHGARGPGREWEGGWGGALEEERERESQMLKNLQEALGLPTGVGNEDNLAENPEDKEVWETTETQGEEEEEEITTAPSSSPNPFPSPSPTPEDTVTYILGRLASLDAGLHQLHVRLHVLDTRVVELTQGLRQLRDAASDTRDSVQALKEVQDRAEQEHGRLEGCLKGLRLGHKCFLLSRDFETQAAAQARCKARGGSLAQPADRQQMDALSRYLRAALAPYNWPVWLGVHDRRSEGLYLFENGQRVSFFAWHRAFSLESGAQPSAATHPLSPDQPNGGVLENCVAQASDDGSWWDHDCERRLYFVCEFPF
